The values below come from patent US20190300616A1.

Experiment [1] has as its target human wild-type IL13Rα2 expressed on the cell surface (human) (UniProt Q14627). The experiment can be described thus: flow cytometry (APC-A), N10 glioma cells pre-incubated with 10x excess rhIL13, then mIgG.
For experiment [2] the target is unchanged. Nature of the experiment: flow cytometry (APC-A), N10 glioma cells.
For experiment [3], the target named is recombinant human IL13Rα2hFc chimera (human) (UniProt Q14627). The experiment can be described thus: SPR, Biacore 3000; mAb immobilized, rhIL13Rα2 injected; 1:1 model.
Chain of recombinant human IL13Rα2hFc chimera (human) (Q14627 27-343 limits assumed, stated change not applied): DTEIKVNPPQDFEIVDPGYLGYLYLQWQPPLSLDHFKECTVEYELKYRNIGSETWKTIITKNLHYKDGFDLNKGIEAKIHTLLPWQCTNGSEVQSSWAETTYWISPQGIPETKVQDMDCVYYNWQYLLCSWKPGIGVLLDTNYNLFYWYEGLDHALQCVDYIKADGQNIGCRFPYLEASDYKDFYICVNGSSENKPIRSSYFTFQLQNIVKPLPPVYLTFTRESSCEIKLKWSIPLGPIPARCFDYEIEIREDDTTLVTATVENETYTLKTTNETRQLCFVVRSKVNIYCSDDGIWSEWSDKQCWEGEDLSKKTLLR
Experiment [4] deals with Pngase F-treated rhIL13Rα2hFc (human) (UniProt Q14627). Nature of the experiment: plate-bound ELISA, Pngase F-treated rhIL13Rα2hFc.
Chain of Pngase F-treated rhIL13Rα2hFc (human) (Q14627 27-343 limits assumed): as the sequence (Q14627 27-343 limits assumed, stated change not applied) above
For experiment [5], the target named is recombinant human IL13Rα2hFc chimera (human) (UniProt Q14627). The experiment can be described thus: plate-bound ELISA on rhIL13Rα2hFc.

Chain of human wild-type IL13Rα2 expressed on the cell surface (human) (Q14627 27-380): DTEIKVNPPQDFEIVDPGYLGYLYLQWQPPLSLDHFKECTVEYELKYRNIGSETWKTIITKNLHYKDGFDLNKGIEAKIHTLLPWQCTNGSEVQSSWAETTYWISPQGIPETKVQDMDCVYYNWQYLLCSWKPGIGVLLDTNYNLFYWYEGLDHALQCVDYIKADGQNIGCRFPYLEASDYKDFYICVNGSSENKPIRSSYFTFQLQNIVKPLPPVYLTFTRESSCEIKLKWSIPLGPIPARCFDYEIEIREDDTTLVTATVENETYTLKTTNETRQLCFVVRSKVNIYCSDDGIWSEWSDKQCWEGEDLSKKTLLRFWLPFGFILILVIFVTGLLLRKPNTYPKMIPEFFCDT

For the substance mIgG (antibody), the % positive cells is 0.9% in experiment [1] and 1.9% in experiment [2].
Take mAb to IL13Rα2 (clone 83807) (antibody): in experiment [3], the Kd was 104 nM, the koff was 0.00231 s⁻¹ and the kon was 22300 M⁻¹ s⁻¹. Further, in experiment [4], the percent decrease of binding against untreated protein stood at 80%.
With “monoclonal antibody to IL13Rα2 (clone B-D13)”, in experiment [5], the EC50 (read off the curve) came to 0.2 µg/mL. Also, in experiment [3], the Kd stood at 46.1 nM, the koff worked out at 0.00499 s⁻¹ and the kon is 108000 M⁻¹ s⁻¹.
